In paper PMC3869383 one finds peptidase stimulation, % of WT base, Kd and fold lower affinity than wild-type base data, which are given here for 17 substances.

One experiment deals with 20S core particle purified from S. cerevisiae (S. cerevisiae (endogenous in yeast)) (UniProt P22141).
Assay: not given
In turn, “recombinant base variant DN4 (pore-2 loop DN in Rpt4) (from UniProt P33299;P40327;P33298;P53549;P33297;Q01939;P38764;P32565;O13563) (complex)” showed a peptidase stimulation, % of WT base of 192 % WT. “recombinant base variant DN6 (pore-2 loop DN in Rpt6) (from UniProt P33299;P40327;P33298;P53549;P33297;Q01939;P38764;P32565;O13563) (complex)” came in with a peptidase stimulation, % of WT base of 84 % WT. Substance “recombinant base variant EN2 (pore-2 loop EN in Rpt2) (from UniProt P33299;P40327;P33298;P53549;P33297;Q01939;P38764;P32565;O13563) (complex)” displayed a peptidase stimulation, % of WT base of 110 % WT. Substance “recombinant base variant EQ4 (Walker-B EQ in Rpt4) (from UniProt P33299;P40327;P33298;P53549;P33297;Q01939;P38764;P32565;O13563) (complex)” came in with a peptidase stimulation, % of WT base of 95 % WT. The same measure, in the same setting: as for “recombinant base variant EQ5 (Walker-B EQ in Rpt5) (from UniProt P33299;P40327;P33298;P53549;P33297;Q01939;P38764;P32565;O13563) (complex)”, the figure is 118 % WT; as for “recombinant base variant KS2 (Walker-A KS in Rpt2) (from UniProt P33299;P40327;P33298;P53549;P33297;Q01939;P38764;P32565;O13563) (complex)”, 10 % WT; as for “recombinant base variant KS3 (Walker-A KS in Rpt3) (from UniProt P33299;P40327;P33298;P53549;P33297;Q01939;P38764;P32565;O13563) (complex)”, 58 % WT. Still for that read-out and setting: the figure for “recombinant base variant KS5 (Walker-A KS in Rpt5) (from UniProt P33299;P40327;P33298;P53549;P33297;Q01939;P38764;P32565;O13563) (complex)” is 59 % WT; for “recombinant base variant KS6 (Walker-A KS in Rpt6) (from UniProt P33299;P40327;P33298;P53549;P33297;Q01939;P38764;P32565;O13563) (complex)” it is 54 % WT. The substance “recombinant base variant NT2 (C-terminal tail of Rpt2 truncated) (from UniProt P33299;P40327;P33298;P53549;P33297;Q01939;P38764;P32565;O13563) (complex)” returned a peptidase stimulation, % of WT base of 10 % WT. For “recombinant base variant NT3 (C-terminal tail of Rpt3 truncated) (from UniProt P33299;P40327;P33298;P53549;P33297;Q01939;P38764;P32565;O13563) (complex)”, the peptidase stimulation, % of WT base was found to be 5 % WT. Still for that read-out and setting: as for “recombinant base variant NT4 (C-terminal tail of Rpt4 truncated) (from UniProt P33299;P40327;P33298;P53549;P33297;Q01939;P38764;P32565;O13563) (complex)”, the figure is 108 % WT; as for “recombinant base variant NT5 (C-terminal tail of Rpt5 truncated) (from UniProt P33299;P40327;P33298;P53549;P33297;Q01939;P38764;P32565;O13563) (complex)”, 7 % WT; as for “recombinant base variant YA1 (pore-1 loop YA in Rpt1) (from UniProt P33299;P40327;P33298;P53549;P33297;Q01939;P38764;P32565;O13563) (complex)”, 84 % WT. In the case of “recombinant base variant YA2 (pore-1 loop YA in Rpt2) (from UniProt P33299;P40327;P33298;P53549;P33297;Q01939;P38764;P32565;O13563) (complex)”, the peptidase stimulation, % of WT base was 38 % WT. For “recombinant base variant with the Walker-B EQ mutation in all six Rpt subunits (from UniProt P33299;P40327;P33298;P53549;P33297;Q01939;P38764;P32565;O13563) (complex)”, the peptidase stimulation, % of WT base is 110 % WT.

The target is the same in a further experiment. Description: peptidase-stimulation.
Take “recombinant base variant YA2 (pore-1 loop YA in Rpt2) (from UniProt P33299;P40327;P33298;P53549;P33297;Q01939;P38764;P32565;O13563) (complex)”: the Kd came out at 138 nM.

The target of another experiment is recombinant base variant NT2 (C-terminal tail of Rpt2 truncated) (S. cerevisiae) (UniProt P33299). Description: ATPase-repression titration.
In the case of “20S core particle purified from S. cerevisiae (from UniProt P22141 1-198) (complex)”, the fold lower affinity than wild-type base came to 1.3 fold.

The target in the next experiment is recombinant base variant NT5 (C-terminal tail of Rpt5 truncated) (S. cerevisiae) (UniProt P33299). Description: ATPase-repression titration.
Consider “20S core particle purified from S. cerevisiae (from UniProt P22141 1-198) (complex)”, for which the fold lower affinity than wild-type base was found to be 5.6 fold.
